T1: Itk full-length enzyme (Mus musculus, UniProt Q03526)
T1 construct: Full-length Itk, Btk and Tec and the Itk kinase domain fragments were PCR amplified; made in house; host or cells: Sf9 insect cells (baculovirus), co-infected 1:1 with Lck baculovirus
T1 sequence (Q03526 1-625): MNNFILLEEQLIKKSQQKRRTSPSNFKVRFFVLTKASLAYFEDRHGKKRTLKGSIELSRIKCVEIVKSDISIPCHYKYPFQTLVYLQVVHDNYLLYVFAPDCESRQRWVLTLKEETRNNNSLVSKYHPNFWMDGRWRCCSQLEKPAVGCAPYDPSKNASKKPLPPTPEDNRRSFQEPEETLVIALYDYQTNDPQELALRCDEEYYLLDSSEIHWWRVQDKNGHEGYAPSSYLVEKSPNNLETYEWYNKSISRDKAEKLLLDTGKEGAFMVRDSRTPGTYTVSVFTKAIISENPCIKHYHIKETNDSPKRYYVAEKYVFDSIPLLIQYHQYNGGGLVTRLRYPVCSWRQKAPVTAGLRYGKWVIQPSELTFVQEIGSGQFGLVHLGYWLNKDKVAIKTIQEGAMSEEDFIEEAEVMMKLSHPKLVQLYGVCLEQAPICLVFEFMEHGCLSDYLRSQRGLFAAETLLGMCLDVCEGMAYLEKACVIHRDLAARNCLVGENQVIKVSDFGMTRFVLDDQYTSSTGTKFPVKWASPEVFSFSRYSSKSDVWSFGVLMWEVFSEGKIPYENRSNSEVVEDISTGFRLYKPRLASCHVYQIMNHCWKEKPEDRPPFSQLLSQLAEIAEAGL


Target: T1, Itk full-length enzyme
Experiment: In vitro kinase assay with western blotting, phosphorylation of SH2 domain-containing substrates with added free SH2 domain or CypA
Type: biochemical
Procedure: Substrate used in each experiment is indicated above each set of blots. 4(a) (left) Itk 32 substrate was incubated with Itk full-length enzyme as before (lane 1), or with Itk 32 domain:free Itk SH2 domain in ratios of 1:10, 1:25 or 1:50 (lanes 2-4, respectively) or equivalent ratios of PI3K N-terminal SH2 domain (lanes 5-7) and subjected to an in vitro kinase assay. […] Coomassie stain and an anti-FLAG blot (bottom panels) show protein levels. (right) The PLCγ1 SH2 domain competes with the PLCγ1 substrate in a similar manner. Lane 1 contains only Itk enzyme and PLCγ1 SH2C-Y783-substrate without additional free SH2 domain. Ratios of free SH2 domain to substrate are 1:5, 1:10 or 1:50 in lanes 2-4, respectively and equivalent ratios of PI3K SH2 domain are used in lanes 5-7. Coomassie stain of the gel and an anti-Itk blot (bottom panels) show protein levels. 4(b) Same experiment as shown in (a) using the Grb2 SH2 domain as a control. (left) Itk 32 substrate was incubated with Itk full-length enzyme (lane 1), or with Itk 32 domain:free Itk SH2 domain in ratios of 1:10 and 1:25 (lanes 2 & 3) or equivalent ratios of Grb2 SH2 domain (lanes 4 & 5) and subjected to an in vitro kinase assay. (right) Identical experiment following PLCγ1 substrate phosphorylation in the presence of the PLCγ1 and Grb2 SH2 domains. Lane 1 is PLCγ1 substrate alone; lanes 2 & 3 are PLCγ1 substrate:PLCγ1 SH2 domain in a 1:10 and 1:25 ratio, respectively and lanes 4 & 5 are identical ratios of PLCγ1 substrate:Grb2 SH2 domain. 4(c) The Itk SH2 domain competes with autophosphorylation of Y180 within full length Itk. For lanes 2-4, the amount of free SH2 domain is the same as used in panel (a), lanes 2-4. No exogenous SH2 domain has been added in lane 1 and full length Itk is both the enzyme and the substrate. Coomassie stain and an anti-FLAG blot (bottom panels) show protein levels. […] Initial velocities are shown for phosphorylation of peptide B (sequence shown in FIG. 5a) by full length Itk in the absence (column 1) and presence (column 2 and 3) of Itk SH2 domain. […]

inhibition of PLCγ1 SH2C-Y783- substrate phosphorylation by free SH2 domain (substrate:free SH2 domain ratios 1:5 to 1:50)	autophosphorylation of Tyr 180 within full length Itk upon addition of free SH2 domain (full length Itk is both enzyme and substrate)	inhibition of Itk 32 substrate phosphorylation (Y180) by free SH2 domain (substrate:free SH2 domain ratios 1:10, 1:25, 1:50)	Molecule
inhibits substrate phosphorylation	–	–	PLCγ1 SH2C domain: isolated carboxy-terminal SH2 domain of PLCγ1 (protein) QTNAHESKEWYHASLTRAQAEHMLMRVPRDGAFLVRKRNEPNSYAISFRAEGKIKHCRVQQEGQTVMLGNSEFDSLVDLISYYEKHPLYRKMKLRYPI
–	greatly diminished	inhibits substrate phosphorylation	Itk SH2 domain: isolated exogenous SH2 domain of Itk, purified from bacteria (protein) EWYNKSISRDKAEKLLLDTGKEGAFMVRDSRTPGTYTVSVFTKAIISENPCIKHYHIKETNDSPKRYYVAEKYVFDSIPLLIQYHQYNGGGLVTRLRYPVCSWRQKA

Reference: patent US20090010911A1, “METHODS AND COMPOSITIONS FOR AFFECTING CYCLOPHILIN A REGULATION OF KINASES IN MODULATING CELLULAR ACTIVITIES” (IOWA STATE UNIVERSITY RESEARCH FOUNDATION, INC., priority 2007, published 2009)
